Results from the supplement of paper PMC9876800.

System: peptide library, one residue held at a place counted from the S/T acceptor
Assay: relative phosphorylation of the sub-library (ratio to the mean residue at this position); higher = residue favoured
Conditions: human
Procedure, shortened: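 In 384-well plates, purified recombinant kinases (human or orthologue constructs) were incubated for 90 min under kinase-specific conditions with 50 μM biotinylated degenerate peptide sub-libraries and 50 μM ATP spiked with γ-32P-ATP. Each sub-library fixed a single residue at one position around a central Ser/Thr. Relative sub-library phosphorylation, measured by phosphorimaging and densitometry of streptavidin membrane spots, is given as a ratio to the mean residue at that position.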

Chain of TLK1, construct: Full length (Q9UKI8 whole entry, looked up): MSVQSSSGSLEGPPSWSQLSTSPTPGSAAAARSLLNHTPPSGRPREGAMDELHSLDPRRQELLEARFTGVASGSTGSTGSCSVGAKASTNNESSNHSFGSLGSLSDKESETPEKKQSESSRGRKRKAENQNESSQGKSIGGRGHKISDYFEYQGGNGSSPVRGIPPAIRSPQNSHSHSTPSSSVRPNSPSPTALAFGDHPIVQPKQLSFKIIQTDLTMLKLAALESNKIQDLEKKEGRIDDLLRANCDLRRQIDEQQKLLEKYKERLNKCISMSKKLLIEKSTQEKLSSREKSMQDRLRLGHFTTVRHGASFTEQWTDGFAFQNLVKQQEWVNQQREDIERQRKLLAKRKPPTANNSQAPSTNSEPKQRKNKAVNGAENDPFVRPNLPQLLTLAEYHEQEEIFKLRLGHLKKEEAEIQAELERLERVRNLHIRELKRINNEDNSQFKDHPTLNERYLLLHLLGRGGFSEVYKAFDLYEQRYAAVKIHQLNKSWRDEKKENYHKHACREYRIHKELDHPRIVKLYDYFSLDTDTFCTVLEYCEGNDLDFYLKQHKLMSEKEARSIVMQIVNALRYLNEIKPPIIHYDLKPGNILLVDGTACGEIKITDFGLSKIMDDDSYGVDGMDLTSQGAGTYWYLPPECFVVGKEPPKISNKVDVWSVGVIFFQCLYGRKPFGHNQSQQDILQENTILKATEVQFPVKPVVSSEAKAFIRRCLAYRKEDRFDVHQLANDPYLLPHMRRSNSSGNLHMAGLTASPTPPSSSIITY
Chain of CAMKK1, construct: aa124-411 (Q8N5S9 124-411, looked up): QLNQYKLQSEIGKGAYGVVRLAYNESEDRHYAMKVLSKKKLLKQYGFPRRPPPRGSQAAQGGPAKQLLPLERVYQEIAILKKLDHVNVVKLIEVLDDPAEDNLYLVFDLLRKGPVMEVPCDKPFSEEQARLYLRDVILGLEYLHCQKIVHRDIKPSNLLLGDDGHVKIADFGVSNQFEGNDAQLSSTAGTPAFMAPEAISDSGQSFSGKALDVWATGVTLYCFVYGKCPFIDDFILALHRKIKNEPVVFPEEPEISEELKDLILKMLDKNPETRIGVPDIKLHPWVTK
Chain of STK32C, construct: aa66-end (Q86UX6 66-486, looked up): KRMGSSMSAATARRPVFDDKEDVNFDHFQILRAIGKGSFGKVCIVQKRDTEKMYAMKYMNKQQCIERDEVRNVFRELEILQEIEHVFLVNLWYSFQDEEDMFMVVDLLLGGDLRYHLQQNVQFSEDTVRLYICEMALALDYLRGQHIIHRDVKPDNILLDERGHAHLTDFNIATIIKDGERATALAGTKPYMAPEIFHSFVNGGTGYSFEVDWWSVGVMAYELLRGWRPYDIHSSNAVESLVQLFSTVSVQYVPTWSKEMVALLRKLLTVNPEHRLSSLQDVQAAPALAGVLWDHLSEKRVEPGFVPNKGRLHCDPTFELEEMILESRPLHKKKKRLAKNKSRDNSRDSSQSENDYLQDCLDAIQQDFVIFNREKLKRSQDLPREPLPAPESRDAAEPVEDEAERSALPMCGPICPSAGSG
Chain of MAP4K2, construct: Full length (Q12851 whole entry, looked up): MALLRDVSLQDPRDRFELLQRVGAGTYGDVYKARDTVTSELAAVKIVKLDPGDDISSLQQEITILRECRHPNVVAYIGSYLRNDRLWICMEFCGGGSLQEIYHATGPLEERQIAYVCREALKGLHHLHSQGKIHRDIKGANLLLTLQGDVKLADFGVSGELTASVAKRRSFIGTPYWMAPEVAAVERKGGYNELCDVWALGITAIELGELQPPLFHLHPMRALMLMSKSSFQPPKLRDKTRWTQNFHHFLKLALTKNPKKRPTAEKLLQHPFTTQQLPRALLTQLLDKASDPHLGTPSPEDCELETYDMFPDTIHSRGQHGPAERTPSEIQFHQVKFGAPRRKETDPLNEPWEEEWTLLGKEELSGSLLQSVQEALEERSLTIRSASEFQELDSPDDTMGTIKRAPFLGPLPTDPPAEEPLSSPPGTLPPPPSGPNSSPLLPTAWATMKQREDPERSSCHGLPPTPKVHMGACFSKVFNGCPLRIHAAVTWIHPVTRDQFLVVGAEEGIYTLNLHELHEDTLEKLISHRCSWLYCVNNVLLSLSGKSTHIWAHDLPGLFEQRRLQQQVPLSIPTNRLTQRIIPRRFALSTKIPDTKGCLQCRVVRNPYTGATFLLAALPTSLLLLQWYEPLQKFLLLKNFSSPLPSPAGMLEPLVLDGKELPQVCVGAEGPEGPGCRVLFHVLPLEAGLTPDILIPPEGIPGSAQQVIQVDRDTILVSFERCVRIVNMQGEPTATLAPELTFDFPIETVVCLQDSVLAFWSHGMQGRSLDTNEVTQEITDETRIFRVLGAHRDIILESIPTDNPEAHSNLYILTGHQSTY

MAP4K2, construct: Full length (from UniProt Q12851)
relative phosphorylation
Conditions | at +1 | at +2 | at +3 | at +4 | at -1 | at -2 | at -3 | at -4 | at -5
A fixed | 0.468 | 0.739 | 0.703 | 0.786 | 0.858 | 1.1 | 0.767 | 0.881 | 0.946
D fixed | 0.266 | 0.979 | 0.592 | 0.804 | 0.927 | 0.912 | 0.852 | 1.09 | 1.01
E fixed | 0.259 | 0.759 | 0.52 | 0.815 | 0.595 | 0.575 | 0.769 | 1.03 | 0.889
F fixed | 1.07 | 0.58 | 0.762 | 0.866 | 0.722 | 1.27 | 0.852 | 1.09 | 1.12
G fixed | 0.742 | 0.986 | 0.999 | 1.07 | 1.61 | 1.19 | 1.45 | 1.37 | 1.26
H fixed | 0.576 | 1.03 | 1.1 | 1.06 | 1.17 | 1.29 | 1.09 | 0.999 | 1.07
I fixed | 1.6 | 0.396 | 0.506 | 0.662 | 0.251 | 0.574 | 0.457 | 0.596 | 0.629
K fixed | 0.519 | 2.31 | 2.03 | 1.65 | 1.48 | 0.754 | 1.69 | 1.05 | 1.18
L fixed | 3.02 | 0.649 | 0.694 | 0.82 | 0.868 | 0.634 | 0.558 | 0.688 | 0.662
M fixed | 3.03 | 0.78 | 0.773 | 0.938 | 1.03 | 0.778 | 0.706 | 0.852 | 0.858
N fixed | 0.852 | 1.24 | 1.26 | 1.2 | 1.88 | 1.14 | 1.28 | 0.955 | 0.971
P fixed | 0.398 | 1.21 | 1.29 | 1.03 | 0.954 | 1.09 | 1.3 | 1.38 | 1.12
Q fixed | 0.581 | 1.11 | 0.996 | 1.22 | 1.09 | 0.908 | 1.05 | 0.921 | 0.834
R fixed | 0.55 | 2.4 | 2.41 | 1.41 | 1.43 | 1.01 | 1.51 | 1.12 | 1.24
V fixed | 0.749 | 0.486 | 0.583 | 0.665 | 0.311 | 0.66 | 0.438 | 0.596 | 0.765
W fixed | 1.43 | 0.652 | 1 | 1.15 | 0.765 | 1.38 | 1.19 | 1.29 | 1.28
Y fixed | 0.892 | 0.689 | 0.783 | 0.866 | 1.05 | 1.75 | 1.04 | 1.1 | 1.16
pThr fixed | 1.48 | 1.36 | 1.3 | 0.836 | 0.698 | 1.24 | 1.13 | 1.2 | 1.27
pTyr fixed | 0.518 | 0.636 | 0.953 | 0.756 | 0.759 | 0.98 | 1.08 | 1.11 | 1.15

TLK1, construct: Full length (from UniProt Q9UKI8)
relative phosphorylation
Conditions | at +1 | at +2 | at +3 | at +4 | at -1 | at -2 | at -3 | at -4 | at -5
A fixed | 0.502 | 0.943 | 1.34 | 0.901 | 1.02 | 1.28 | 1.23 | 0.986 | 0.846
D fixed | 0.279 | 1.17 | 0.745 | 0.602 | 2.36 | 3.12 | 2.28 | 1.26 | 0.993
E fixed | 0.353 | 0.499 | 0.939 | 0.52 | 1.98 | 3.77 | 1.44 | 1.01 | 0.812
F fixed | 0.586 | 1.4 | 1.32 | 1.77 | 0.517 | 0.384 | 0.887 | 1.51 | 1.46
G fixed | 0.296 | 0.832 | 1.13 | 0.978 | 0.518 | 0.875 | 0.741 | 0.765 | 0.693
H fixed | 0.917 | 1.63 | 1.06 | 0.957 | 1.08 | 0.843 | 1.14 | 1.12 | 0.909
I fixed | 1.06 | 0.658 | 0.707 | 0.968 | 0.717 | 0.384 | 0.688 | 1.24 | 1.06
K fixed | 0.848 | 0.636 | 0.646 | 0.891 | 1.02 | 0.512 | 0.856 | 0.757 | 0.952
L fixed | 1.49 | 1.02 | 0.72 | 1.02 | 0.887 | 0.371 | 0.679 | 0.984 | 0.936
M fixed | 2.43 | 1.6 | 0.993 | 0.964 | 0.751 | 0.588 | 0.907 | 0.896 | 0.826
N fixed | 1.66 | 0.582 | 0.636 | 0.674 | 1.44 | 1.35 | 1.09 | 0.598 | 0.609
P fixed | 0.217 | 0.821 | 1.29 | 1.38 | 0.364 | 0.484 | 0.856 | 0.554 | 0.897
Q fixed | 2.14 | 0.964 | 0.808 | 0.722 | 0.808 | 1.11 | 0.775 | 0.871 | 0.697
R fixed | 1.98 | 0.664 | 0.848 | 0.815 | 1.27 | 0.504 | 1.01 | 0.795 | 1.32
V fixed | 0.996 | 0.569 | 0.809 | 0.81 | 0.789 | 0.497 | 0.659 | 1.21 | 1.16
W fixed | 0.669 | 2.09 | 1.6 | 1.77 | 0.633 | 0.46 | 0.836 | 1.26 | 1.43
Y fixed | 0.577 | 0.931 | 1.41 | 1.26 | 0.831 | 0.47 | 0.932 | 1.2 | 1.41
pThr fixed | 0.472 | 0.804 | 0.79 | 0.807 | 0.694 | 1.76 | 1.85 | 1.18 | 0.601
pTyr fixed | 0.518 | 1.39 | 1.48 | 1.08 | 1.61 | 2.32 | 1.4 | 1.55 | 1.68

STK32C, construct: aa66-end (from UniProt Q86UX6)
relative phosphorylation
Conditions | at +1 | at +2 | at +3 | at +4 | at -1 | at -2 | at -3 | at -4 | at -5
A fixed | 0.586 | 0.613 | 0.769 | 0.982 | 0.776 | 0.864 | 0.945 | 1.11 | 1.1
D fixed | 0.55 | 0.69 | 0.689 | 0.866 | 0.807 | 0.64 | 0.957 | 1.38 | 1.18
E fixed | 1.12 | 1.13 | 0.957 | 1.46 | 0.767 | 0.801 | 1.03 | 1.24 | 0.887
F fixed | 2.08 | 1.21 | 1.08 | 0.741 | 0.739 | 1.04 | 0.611 | 0.759 | 0.924
G fixed | 0.541 | 0.564 | 0.682 | 0.907 | 1.26 | 0.918 | 0.985 | 1.42 | 1.32
H fixed | 0.588 | 1.04 | 1.1 | 1.02 | 0.849 | 0.895 | 0.645 | 0.763 | 0.862
I fixed | 1.92 | 1.03 | 1.51 | 0.836 | 0.592 | 0.773 | 0.758 | 0.812 | 0.912
K fixed | 0.671 | 0.572 | 1.05 | 1.19 | 1.14 | 0.826 | 0.951 | 0.962 | 1.05
L fixed | 0.965 | 1.19 | 0.968 | 0.832 | 0.809 | 1.33 | 0.772 | 0.756 | 0.954
M fixed | 1.77 | 1.09 | 0.944 | 0.892 | 1.09 | 1.12 | 0.745 | 0.94 | 0.923
N fixed | 0.651 | 0.755 | 0.836 | 0.992 | 1.04 | 0.841 | 0.76 | 0.93 | 0.882
P fixed | 0.399 | 0.362 | 0.54 | 1.21 | 1.73 | 1.09 | 1.04 | 1.14 | 1.06
Q fixed | 1.18 | 0.714 | 0.917 | 1.07 | 1.08 | 0.824 | 0.796 | 0.838 | 0.779
R fixed | 1.06 | 0.743 | 1.23 | 1.25 | 1.97 | 2.49 | 3.68 | 1.38 | 1.43
V fixed | 1.14 | 0.809 | 1.33 | 0.798 | 0.779 | 0.745 | 0.814 | 0.883 | 0.854
W fixed | 0.863 | 2.44 | 1.21 | 1.05 | 0.672 | 0.887 | 0.698 | 0.86 | 0.954
Y fixed | 0.919 | 2.05 | 1.18 | 0.899 | 0.909 | 0.911 | 0.804 | 0.829 | 0.927
pThr fixed | 1.03 | 2.66 | 3.27 | 2.05 | 1.08 | 1.28 | 7.04 | 1.72 | 1.18
pTyr fixed | 2.11 | 71.5 | 5.77 | 9.82 | 1.41 | 2.55 | 1.39 | 1.07 | 1.07

CAMKK1, construct: aa124-411 (from UniProt Q8N5S9)
relative phosphorylation
Conditions | at +1 | at +2 | at +3 | at +4 | at -1 | at -2 | at -3 | at -4 | at -5
A fixed | 0.901 | 0.973 | 0.903 | 0.897 | 1.05 | 0.46 | 1.22 | 1.1 | 1.33
D fixed | 0.614 | 0.968 | 0.958 | 1.06 | 1.05 | 0.445 | 0.426 | 1.26 | 1.18
E fixed | 0.644 | 0.723 | 0.891 | 1.05 | 1.31 | 0.348 | 0.461 | 1.18 | 1.06
F fixed | 0.858 | 0.802 | 0.751 | 0.774 | 0.629 | 1.59 | 1.36 | 1.02 | 0.853
G fixed | 0.83 | 0.897 | 1.14 | 1.2 | 0.7 | 0.458 | 0.757 | 1.18 | 1.32
H fixed | 1.31 | 1.44 | 1.24 | 1.12 | 1.06 | 0.949 | 1.12 | 1.06 | 1.05
I fixed | 1.06 | 0.725 | 0.597 | 0.612 | 0.645 | 0.756 | 1.18 | 0.675 | 0.687
K fixed | 0.907 | 0.997 | 1.27 | 1.18 | 1.05 | 0.463 | 0.443 | 0.806 | 1.18
L fixed | 1.12 | 0.703 | 0.657 | 0.76 | 1.14 | 2.71 | 1.29 | 0.811 | 0.605
M fixed | 1.37 | 0.901 | 0.797 | 0.845 | 1.27 | 2.52 | 2.16 | 0.82 | 0.901
N fixed | 1.21 | 1.11 | 1.2 | 1.25 | 1.21 | 0.811 | 0.832 | 1.03 | 1.04
P fixed | 0.157 | 0.927 | 1.2 | 1.29 | 0.192 | 0.229 | 1.05 | 0.96 | 1.21
Q fixed | 1.33 | 1.08 | 1.15 | 1.14 | 1.51 | 0.696 | 0.872 | 0.955 | 0.863
R fixed | 1.31 | 1.57 | 1.49 | 1.23 | 1.75 | 0.633 | 0.583 | 0.791 | 1.13
V fixed | 1.06 | 0.865 | 0.702 | 0.628 | 0.696 | 0.594 | 1.04 | 0.83 | 0.786
W fixed | 1.01 | 0.968 | 0.975 | 1.13 | 0.718 | 0.668 | 1.03 | 1.59 | 0.906
Y fixed | 1.31 | 1.36 | 1.08 | 0.848 | 1.02 | 2.67 | 1.18 | 0.926 | 0.903
pThr fixed | 0.793 | 0.982 | 0.885 | 0.852 | 0.508 | 0.624 | 0.842 | 0.969 | 0.9
pTyr fixed | 0.907 | 0.947 | 1.01 | 0.925 | 1.28 | 0.668 | 0.726 | 0.838 | 0.979
